Test results published in article PMC6004067 (Genes & Development, 2018).

Key:
Settings in all cases: both partners purified
[1] = target: T1, GST-TBP, GST-tagged full-length human TBP (human, UniProt P20226 1-339); assay: pull-down; GST pull-down: GST-TBP, GST-TFIIB or TBP fragments on glutathione beads; analytes in buffer B2 (150 mM NaCl), 1 h at 4°C, four washes, Western blot
T1 construct: human TBP, full length

[2] = target: T2, TATA-box-binding protein (TBP), full-length human (human, UniProt P20226 1-339); assay: pull-down; Flag-tagged TFIIB or its mutants immobilized on Flag beads; TBP or SNAPc as analyte; buffer B2, 1 h at 4°C, four washes, Western blot
T2 construct: human TBP, full length; Two preparations of free TBP are described (Flag/His double-tagged; GST-TBP cleaved with thrombin); also called wild-type TBP; source: E. coli BL21 (DE3), purified (Ni-NTA as Flag- and His-tagged protein, or cut with thrombin from GST-TBP)
T2 sequence (P20226 whole entry): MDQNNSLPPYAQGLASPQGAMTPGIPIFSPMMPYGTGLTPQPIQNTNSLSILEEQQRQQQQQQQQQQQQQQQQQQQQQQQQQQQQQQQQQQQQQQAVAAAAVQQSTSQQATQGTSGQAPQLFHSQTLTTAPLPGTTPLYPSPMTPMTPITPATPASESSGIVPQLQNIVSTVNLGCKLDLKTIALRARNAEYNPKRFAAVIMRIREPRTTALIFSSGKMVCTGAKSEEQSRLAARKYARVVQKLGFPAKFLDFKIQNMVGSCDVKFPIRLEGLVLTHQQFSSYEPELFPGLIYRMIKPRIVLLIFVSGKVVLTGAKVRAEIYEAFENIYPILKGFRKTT

[3] = target: T2, TATA-box-binding protein (TBP), …; assay: pull-down; GST pull-down: GST-TBP, GST-TFIIB or TBP fragments on glutathione beads; analytes in buffer B2 (150 mM NaCl), 1 h at 4°C, four washes, Western blot

T1 sequence (P20226 whole entry, the tested form may be a part): as the sequence (P20226 whole entry) above

binding result [1] | binding result [2] | binding result [3] | Binder
binds | binds | – | TFIIB, full-length human, Flag- and His-tagged (natural protein, UniProt Q00403 1-316, looked up, human TFIIB, full length; also called Flag-tagged TFIIB; wild-type TFIIB; source: E. coli BL21 (DE3), purified (Ni-NTA)) MASTSRLDALPRVTCPNHPDAILVEDYRAGDMICPECGLVVGDRVIDVGSEWRTFSNDKATKDPSRVGDSQNPLLSDGDLSTMIGKGTGAASFDEFGNSKYQNRRTMSSSDRAMMNAFKEITTMADRINLPRNIVDRTNNLFKQVYEQKSLKGRANDAIASACLYIACRQEGVPRTFKEICAVSRISKKEIGRCFKLILKALETSVDLITTGDFMSRFCSNLCLPKQVQMAATHIARKAVELDLVPGRSPISVAAAAIYMASQASAEKRTQKEIGDIAGVADVTIRQSYRLIYPRAPDLFPTDFKFDTPVDKLPQL
– | binds | – | TFIIB R169E, Flag-tagged (natural protein, human, UniProt Q00403 1-316, looked up, human TFIIB with a single R169E substitution; Probably made as the full-length parent) MASTSRLDALPRVTCPNHPDAILVEDYRAGDMICPECGLVVGDRVIDVGSEWRTFSNDKATKDPSRVGDSQNPLLSDGDLSTMIGKGTGAASFDEFGNSKYQNRRTMSSSDRAMMNAFKEITTMADRINLPRNIVDRTNNLFKQVYEQKSLKGRANDAIASACLYIACEQEGVPRTFKEICAVSRISKKEIGRCFKLILKALETSVDLITTGDFMSRFCSNLCLPKQVQMAATHIARKAVELDLVPGRSPISVAAAAIYMASQASAEKRTQKEIGDIAGVADVTIRQSYRLIYPRAPDLFPTDFKFDTPVDKLPQL
– | binds | – | TFIIB R169E/K188E, Flag-tagged (natural protein, human, UniProt Q00403 1-316, looked up, human TFIIB with the double R169E/K188E substitution; Probably made as the full-length parent; also called double substitution) MASTSRLDALPRVTCPNHPDAILVEDYRAGDMICPECGLVVGDRVIDVGSEWRTFSNDKATKDPSRVGDSQNPLLSDGDLSTMIGKGTGAASFDEFGNSKYQNRRTMSSSDRAMMNAFKEITTMADRINLPRNIVDRTNNLFKQVYEQKSLKGRANDAIASACLYIACEQEGVPRTFKEICAVSRISEKEIGRCFKLILKALETSVDLITTGDFMSRFCSNLCLPKQVQMAATHIARKAVELDLVPGRSPISVAAAAIYMASQASAEKRTQKEIGDIAGVADVTIRQSYRLIYPRAPDLFPTDFKFDTPVDKLPQL
– | – | binds | GST-TFIIB (natural protein, human, UniProt Q00403 1-316, looked up, TFIIB fused to GST) MASTSRLDALPRVTCPNHPDAILVEDYRAGDMICPECGLVVGDRVIDVGSEWRTFSNDKATKDPSRVGDSQNPLLSDGDLSTMIGKGTGAASFDEFGNSKYQNRRTMSSSDRAMMNAFKEITTMADRINLPRNIVDRTNNLFKQVYEQKSLKGRANDAIASACLYIACRQEGVPRTFKEICAVSRISKKEIGRCFKLILKALETSVDLITTGDFMSRFCSNLCLPKQVQMAATHIARKAVELDLVPGRSPISVAAAAIYMASQASAEKRTQKEIGDIAGVADVTIRQSYRLIYPRAPDLFPTDFKFDTPVDKLPQL
